# Results reported in patent publication US20160151452A1.
# B1: rusticyanin from Thiobacillus ferrooxidans (protein)
# chain: GTLDTTWKEATLPQVKAMLEKDTGKVSGDTVTYSGKTVHVVAAAVLPGFPFPSFEVHDKKNPTLEIPAGATVDVTFINTNKGFGHSFDITKKGPPYAVMPVIDPIVAGTGFSPVPKDGKFGYTDFTWHPTAGTYYYVCQIPGHAATGMFGKIVVK
# Experiments:
# [1] = biological target: EphB1-Fc; assay: SPR, cupredoxin immobilised on CM5 chip, 100 nM Eph-Fc injected
# [2] = biological target: EphA8-Fc; assay: as above
# EphA8-Fc, sequence (O09127 27-541): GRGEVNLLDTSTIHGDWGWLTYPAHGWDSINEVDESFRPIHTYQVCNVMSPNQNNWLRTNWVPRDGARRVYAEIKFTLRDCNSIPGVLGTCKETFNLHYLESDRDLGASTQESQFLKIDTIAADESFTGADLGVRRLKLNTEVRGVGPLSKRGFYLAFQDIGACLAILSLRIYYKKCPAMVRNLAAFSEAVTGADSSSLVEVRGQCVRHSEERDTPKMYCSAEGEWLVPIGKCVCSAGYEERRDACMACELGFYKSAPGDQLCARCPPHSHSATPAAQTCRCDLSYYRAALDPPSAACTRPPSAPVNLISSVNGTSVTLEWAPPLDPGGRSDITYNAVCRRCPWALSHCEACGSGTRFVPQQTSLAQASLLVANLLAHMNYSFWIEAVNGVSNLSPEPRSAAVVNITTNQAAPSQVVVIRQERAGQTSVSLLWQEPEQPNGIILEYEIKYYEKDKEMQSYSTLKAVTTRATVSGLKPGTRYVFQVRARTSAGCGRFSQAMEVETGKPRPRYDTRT
# EphB1-Fc, sequence (P09759 18-540): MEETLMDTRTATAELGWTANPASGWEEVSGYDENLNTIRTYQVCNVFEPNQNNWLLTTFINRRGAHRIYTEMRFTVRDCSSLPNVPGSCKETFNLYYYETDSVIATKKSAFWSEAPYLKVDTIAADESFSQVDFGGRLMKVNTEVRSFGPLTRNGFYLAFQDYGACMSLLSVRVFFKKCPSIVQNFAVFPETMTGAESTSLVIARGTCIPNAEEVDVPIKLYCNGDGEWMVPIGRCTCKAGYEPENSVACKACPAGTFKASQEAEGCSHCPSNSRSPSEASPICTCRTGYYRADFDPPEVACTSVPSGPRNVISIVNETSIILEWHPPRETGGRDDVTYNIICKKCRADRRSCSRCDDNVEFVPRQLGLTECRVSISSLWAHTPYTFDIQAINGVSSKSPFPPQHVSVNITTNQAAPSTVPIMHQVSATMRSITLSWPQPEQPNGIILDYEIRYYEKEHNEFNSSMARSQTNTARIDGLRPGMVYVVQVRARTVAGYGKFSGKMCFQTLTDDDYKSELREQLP
binder,measurement,setting,value
B1,Req (saturating resonance),[1],79 RU
same,Req (saturating resonance),[2],79 RU
